Laboratory results from US20250263504A1 (Takeda / Millennium, published 2025).

Columns and labels:
plasma kallikrein (pKal) = target: T1, plasma kallikrein (pKal) (UniProt P03952 20-390; P03952 391-638, limits assumed); test: enzyme inhibition, corrected Ki,app
T1 construct: the description speaks of human pKal; also called active pKal

Factor XIIa (FXIIa) = target: T2, Factor XIIa (FXIIa) (UniProt P00748 20-372; P00748 373-615, limits assumed); test: enzyme inhibition, corrected Ki,app
T2 construct: the description speaks of human FXIIa; also called active Factor XII
T2 sequence (looked up) 1: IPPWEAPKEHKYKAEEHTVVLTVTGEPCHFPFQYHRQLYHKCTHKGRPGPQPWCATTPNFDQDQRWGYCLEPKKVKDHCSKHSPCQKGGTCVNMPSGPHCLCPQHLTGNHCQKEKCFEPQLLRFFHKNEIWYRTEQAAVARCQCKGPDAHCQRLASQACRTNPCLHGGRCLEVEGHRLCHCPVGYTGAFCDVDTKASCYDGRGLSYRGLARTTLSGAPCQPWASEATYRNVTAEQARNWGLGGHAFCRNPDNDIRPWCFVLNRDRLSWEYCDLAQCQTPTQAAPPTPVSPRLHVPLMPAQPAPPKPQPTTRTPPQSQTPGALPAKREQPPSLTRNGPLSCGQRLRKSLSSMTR
T2 sequence (looked up) 2: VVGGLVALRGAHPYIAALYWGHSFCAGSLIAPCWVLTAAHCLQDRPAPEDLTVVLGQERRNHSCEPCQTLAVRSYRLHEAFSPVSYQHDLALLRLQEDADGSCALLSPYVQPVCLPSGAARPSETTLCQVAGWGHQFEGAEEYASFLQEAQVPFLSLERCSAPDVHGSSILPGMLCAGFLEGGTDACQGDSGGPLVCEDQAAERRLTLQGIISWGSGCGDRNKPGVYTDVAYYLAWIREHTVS

T1 sequence (P03952 20-390 limits assumed, form in doubt, chain 1 of 2): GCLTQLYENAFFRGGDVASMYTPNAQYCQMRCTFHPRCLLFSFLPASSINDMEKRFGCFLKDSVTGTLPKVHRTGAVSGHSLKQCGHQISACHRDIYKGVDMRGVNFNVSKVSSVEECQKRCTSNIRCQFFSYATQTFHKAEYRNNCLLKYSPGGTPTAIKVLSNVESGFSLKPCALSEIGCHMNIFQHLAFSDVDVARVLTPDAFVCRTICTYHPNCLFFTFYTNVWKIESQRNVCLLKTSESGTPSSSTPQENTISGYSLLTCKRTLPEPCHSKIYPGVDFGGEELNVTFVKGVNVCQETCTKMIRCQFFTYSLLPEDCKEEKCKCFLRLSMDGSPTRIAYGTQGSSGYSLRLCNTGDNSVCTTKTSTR
T1 sequence (P03952 391-638 limits assumed, form in doubt, chain 2 of 2): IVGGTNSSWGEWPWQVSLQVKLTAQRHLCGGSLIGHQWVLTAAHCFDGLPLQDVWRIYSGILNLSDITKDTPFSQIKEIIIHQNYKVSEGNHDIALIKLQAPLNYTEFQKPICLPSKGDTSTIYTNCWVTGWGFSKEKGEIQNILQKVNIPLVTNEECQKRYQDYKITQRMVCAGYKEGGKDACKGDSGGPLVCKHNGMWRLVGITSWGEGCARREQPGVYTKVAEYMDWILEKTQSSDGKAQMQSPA

B1: 620I-X0136-C05 (bispecific antibody)
heavy: not shown
light: DIQMTQSPSTLSASVGDRVTITCRASQSISSWLAWYQQKPGKAPKLLIYKASTLESGVPSRFSGSGSGTEFTLTISSLQPDDFATYYCQQYNTYWTFGQGTKVEIKRTVAAPSVFIFPPSDEQLKSGTASVVCLLNNFYPREAKVQWKVDNALQSGNSQESVTEQDSKDSTYSLSSTLTLSKADYEKHKVYACEVTHQGLSSPVTKSFNRGEC
notes: also called 620I-X136-C05
Plasma kallikrein (pKal)
  Ki: 0.15 nM
Factor XIIa (FXIIa)
  Ki: 0.058 nM

B2: 620I-X0138-A06 (bispecific antibody)
heavy: not shown
light: B1 light
notes: also called 620I-X138-A06
Plasma kallikrein (pKal)
  Ki: 0.145 nM

B3: 620I-X0136-A09 (bispecific antibody, human IgG1, kappa)
heavy: not shown
light: B1 light
notes: also called 620I-X136-A09
Plasma kallikrein (pKal)
  Ki: 0.19 nM

B4: 620I-X0139-G02 (bispecific antibody)
heavy: not shown
light: B1 light
notes: also called 620I-X139-G02
Plasma kallikrein (pKal)
  Ki: 0.171 nM
Factor XIIa (FXIIa)
  Ki: 0.161 nM

B5: 620I-X0136-C07 (bispecific antibody)
heavy: not shown
light: B1 light
notes: also called 620I-X136-C07
Plasma kallikrein (pKal)
  Ki: 0.182 nM
Factor XIIa (FXIIa)
  Ki: 0.699 nM

B6: 620I-X0136-G05 (bispecific antibody)
heavy: not shown
light: B1 light
notes: also called 620I-X136-G05
Plasma kallikrein (pKal)
  Ki: 0.179 nM
Factor XIIa (FXIIa)
  Ki: 0.1 nM

B7: 620I-X0136-B02 (bispecific antibody)
heavy: not shown
light: B1 light
notes: also called 620I-X136-B02
Plasma kallikrein (pKal)
  Ki: 0.21 nM
Factor XIIa (FXIIa)
  Ki: 2.86 nM

B8: 620I-X0136-D06 (bispecific antibody)
heavy: not shown
light: B1 light
notes: also called 620I-X136-D06
Plasma kallikrein (pKal)
  Ki: 0.176 nM
Factor XIIa (FXIIa)
  Ki: 0.084 nM

B9: 620I-X0136-C08 (bispecific antibody)
heavy: not shown
light: B1 light
notes: also called 620I-X136-C08
Plasma kallikrein (pKal)
  Ki: 0.216 nM
Factor XIIa (FXIIa)
  Ki: 1.23 nM

B10: 620I-X0136-C11 (bispecific antibody)
heavy: not shown
light: B1 light
notes: also called 620I-X136-C11
Plasma kallikrein (pKal)
  Ki: 0.154 nM
Factor XIIa (FXIIa)
  Ki: 0.038 nM

B11: 620I-X0136-A02 (bispecific antibody)
heavy: not shown
light: B1 light
notes: also called 620I-X136-A02
Plasma kallikrein (pKal)
  Ki: 0.176 nM
Factor XIIa (FXIIa)
  Ki: 0.136 nM

B12: 620I-X0136-B11 (bispecific antibody)
heavy: not shown
light: B1 light
notes: also called 620I-X136-B11
Plasma kallikrein (pKal)
  Ki: 0.172 nM
Factor XIIa (FXIIa)
  Ki: 0.184 nM

B13: 620I-X0136-A04 (bispecific antibody)
heavy: not shown
light: B1 light
notes: also called 620I-X136-A04
Plasma kallikrein (pKal)
  Ki: 0.171 nM
Factor XIIa (FXIIa)
  Ki: 0.23 nM

B14: 620I-X0136-A01 (bispecific antibody)
heavy: not shown
light: B1 light
notes: also called 620I-X136-A01
Plasma kallikrein (pKal)
  Ki: 0.135 nM
Factor XIIa (FXIIa)
  Ki: 0.224 nM

B15: 620I-X0142-E09 (bispecific antibody)
heavy: not shown
light: B1 light
notes: also called 620I-X142-E09
Plasma kallikrein (pKal)
  Ki: 0.174 nM
Factor XIIa (FXIIa)
  Ki: 0.163 nM

B16: 620I-X0136-C01 (bispecific antibody)
heavy: not shown
light: B1 light
notes: also called 620I-X136-C01
Plasma kallikrein (pKal)
  Ki: 0.173 nM
Factor XIIa (FXIIa)
  Ki: 0.957 nM

B17: 620I-X0136-E05 (bispecific antibody)
heavy: not shown
light: B1 light
notes: also called 620I-X136-E05
Plasma kallikrein (pKal)
  Ki: 0.158 nM
Factor XIIa (FXIIa)
  Ki: 0.172 nM

B18: 620I-X0136-E07 (bispecific antibody)
heavy: not shown
light: B1 light
notes: also called 620I-X136-E07
Plasma kallikrein (pKal)
  Ki: 0.19 nM
Factor XIIa (FXIIa)
  Ki: 0.312 nM

B19: 620I-X0136-G04 (bispecific antibody)
heavy: not shown
light: B1 light
notes: also called 620I-X136-G04
Plasma kallikrein (pKal)
  Ki: 0.179 nM
Factor XIIa (FXIIa)
  Ki: 0.107 nM

B20: 620I-X0137-C08 (bispecific antibody)
heavy: not shown
light: B1 light
notes: also called 620I-X137-C08
Plasma kallikrein (pKal)
  Ki: 0.153 nM
Factor XIIa (FXIIa)
  Ki: 0.034 nM

B21: 620I-X0136-A12 (bispecific antibody)
heavy: not shown
light: B1 light
notes: also called 620I-X136-A12
Plasma kallikrein (pKal)
  Ki: 0.234 nM
Factor XIIa (FXIIa)
  Ki: 0.304 nM

B22: 620I-X0136-B07 (bispecific antibody)
heavy: not shown
light: B1 light
notes: also called 620I-X136-B07
Plasma kallikrein (pKal)
  Ki: 0.168 nM
Factor XIIa (FXIIa)
  Ki: 0.099 nM

B23: 620I-X0136-F11 (bispecific antibody)
heavy: not shown
light: B1 light
notes: also called 620I-X136-F11
Plasma kallikrein (pKal)
  Ki: 0.201 nM
Factor XIIa (FXIIa)
  Ki: 0.235 nM

B24: 620I-X0136-C09 (bispecific antibody)
heavy: not shown
light: B1 light
notes: also called 620I-X136-C09
Plasma kallikrein (pKal)
  Ki: 0.173 nM
Factor XIIa (FXIIa)
  Ki: 0.09 nM

B25: 620I-X0136-G10 (bispecific antibody)
heavy: not shown
light: B1 light
notes: also called 620I-X136-G10
Plasma kallikrein (pKal)
  Ki: 0.171 nM
Factor XIIa (FXIIa)
  Ki: 0.028 nM

B26: 620I-X0136-D12 (bispecific antibody)
heavy: not shown
light: B1 light
notes: also called 620I-X136-D12
Plasma kallikrein (pKal)
  Ki: 0.179 nM
Factor XIIa (FXIIa)
  Ki: 0.063 nM

B27: 620I-X0136-D05 (bispecific antibody)
heavy: not shown
light: B1 light
notes: also called 620I-X136-D05
Plasma kallikrein (pKal)
  Ki: 0.055 nM
Factor XIIa (FXIIa)
  Ki: 0.013 nM

B28: 620I-X0137-A10 (bispecific antibody)
heavy: not shown
light: B1 light
notes: also called 620I-X137-A10
Plasma kallikrein (pKal)
  Ki: 0.195 nM
Factor XIIa (FXIIa)
  Ki: 0.205 nM

B29: 620I-X0138-A01 (bispecific antibody)
heavy: not shown
light: B1 light
notes: also called 620I-X138-A01
Plasma kallikrein (pKal)
  Ki: 0.154 nM
Factor XIIa (FXIIa)
  Ki: 0.465 nM

B30: 620I-X0136-C04 (bispecific antibody)
heavy: not shown
light: B1 light
notes: also called 620I-X136-C04
Plasma kallikrein (pKal)
  Ki: 0.205 nM
Factor XIIa (FXIIa)
  Ki: 0.189 nM

B31: 620I-X0136-C12 (bispecific antibody)
heavy: not shown
light: B1 light
notes: also called 620I-X136-C12
Plasma kallikrein (pKal)
  Ki: 0.217 nM
Factor XIIa (FXIIa)
  Ki: 1.57 nM

B32: 620I-X0136-G08 (bispecific antibody)
heavy: not shown
light: B1 light
notes: also called 620I-X136-G08
Plasma kallikrein (pKal)
  Ki: 0.176 nM
Factor XIIa (FXIIa)
  Ki: 0.028 nM

B33: 620I-X0136-F07 (bispecific antibody)
heavy: not shown
light: B1 light
notes: also called 620I-X136-F07
Plasma kallikrein (pKal)
  Ki: 0.183 nM
Factor XIIa (FXIIa)
  Ki: 0.167 nM

B34: 620I-X0137-B08 (bispecific antibody)
heavy: not shown
light: B1 light
notes: also called 620I-X137-B08
Plasma kallikrein (pKal)
  Ki: 0.312 nM
Factor XIIa (FXIIa)
  Ki: 0.409 nM

B35: 620I-X0138-A02 (bispecific antibody)
heavy: not shown
light: B1 light
notes: also called 620I-X138-A02
Plasma kallikrein (pKal)
  Ki: 0.206 nM
Factor XIIa (FXIIa)
  Ki: 0.288 nM

B36: 620I-X0136-A05 (bispecific antibody)
heavy: not shown
light: B1 light
notes: also called 620I-X136-A05
Plasma kallikrein (pKal)
  Ki: 0.179 nM
Factor XIIa (FXIIa)
  Ki: 0.111 nM

B37: 620I-X0142-A11 (bispecific antibody)
heavy: not shown
light: B1 light
notes: also called 620I-X142-A11
Plasma kallikrein (pKal)
  Ki: 0.158 nM
Factor XIIa (FXIIa)
  Ki: 0.195 nM

B38: 620I-X0136-A11 (bispecific antibody)
heavy: not shown
light: B1 light
notes: also called 620I-X136-A11
Plasma kallikrein (pKal)
  Ki: 0.199 nM
Factor XIIa (FXIIa)
  Ki: 0.193 nM

B39: 620I-X0142-A10 (bispecific antibody)
heavy: not shown
light: B1 light
notes: also called 620I-X142-A10
Plasma kallikrein (pKal)
  Ki: 0.175 nM
Factor XIIa (FXIIa)
  Ki: 0.389 nM
